Results taken from article PMC3840697 (Angewandte Chemie (International Ed. in English), 2013).

Biological target: T1, exosome core with Rrp42 N9A (state A mutant) (UniProt Q9UXC2 1-248; Q9UXC0 1-275, N9A)
T1 sequence 1: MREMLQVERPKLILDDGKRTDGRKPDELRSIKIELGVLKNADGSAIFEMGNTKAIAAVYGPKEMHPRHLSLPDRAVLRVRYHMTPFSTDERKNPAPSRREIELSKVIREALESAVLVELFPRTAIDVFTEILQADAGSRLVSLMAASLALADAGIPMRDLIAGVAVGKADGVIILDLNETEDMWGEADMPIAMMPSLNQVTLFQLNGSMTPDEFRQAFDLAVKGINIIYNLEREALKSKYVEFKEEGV
T1 sequence 2: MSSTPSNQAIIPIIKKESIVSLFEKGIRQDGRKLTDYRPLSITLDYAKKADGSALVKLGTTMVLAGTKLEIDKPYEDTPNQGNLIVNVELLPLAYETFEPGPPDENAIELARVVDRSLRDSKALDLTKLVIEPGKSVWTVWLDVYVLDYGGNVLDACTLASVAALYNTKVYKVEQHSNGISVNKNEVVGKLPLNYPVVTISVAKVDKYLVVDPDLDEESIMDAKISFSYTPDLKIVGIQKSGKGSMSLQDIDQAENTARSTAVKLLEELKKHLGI
Test: methyl TROSY NMR spectra of free and cap-bound exosome core

B1: Rrp4 (exosome cap protein) (natural protein)
chain: MNMSQSQKIVLQPRSIVVPGELLAEGEFQIPWSPYILKINSKYYSTVVGLFDVKDTQFEVIPLEGSFYYPKINDIVIGLVEDVEIYGWVVDIKAPYKAYLPASNLLGRSINVGEDLRRYLDVGDYVIARIENFDRSIDPVLSVKGKDLGRVSNGIVIDIMPVKVPRVIGKNKSMYETLTSKSGCSIFVANNGRIWATCPSRFSEEILIEAIRKIENESHIKGLTDRIKQFIEEKLGERNASSGETKTNS
binding result: binds
